Measurements: US20220033498A1 (UNIVERSITY OF TOKYO, published 2022)

Biological target: T1, mouse CHL1 protein expressed on the surface of HEK293 cells transfected with mChl1 pIRES2-EGFP (mouse, UniProt P70232 26-1209)
T1 construct: whole, on cells; also called CHL1 protein on cell surface; cell adhesion molecule L1-like
T1 sequence (looked up): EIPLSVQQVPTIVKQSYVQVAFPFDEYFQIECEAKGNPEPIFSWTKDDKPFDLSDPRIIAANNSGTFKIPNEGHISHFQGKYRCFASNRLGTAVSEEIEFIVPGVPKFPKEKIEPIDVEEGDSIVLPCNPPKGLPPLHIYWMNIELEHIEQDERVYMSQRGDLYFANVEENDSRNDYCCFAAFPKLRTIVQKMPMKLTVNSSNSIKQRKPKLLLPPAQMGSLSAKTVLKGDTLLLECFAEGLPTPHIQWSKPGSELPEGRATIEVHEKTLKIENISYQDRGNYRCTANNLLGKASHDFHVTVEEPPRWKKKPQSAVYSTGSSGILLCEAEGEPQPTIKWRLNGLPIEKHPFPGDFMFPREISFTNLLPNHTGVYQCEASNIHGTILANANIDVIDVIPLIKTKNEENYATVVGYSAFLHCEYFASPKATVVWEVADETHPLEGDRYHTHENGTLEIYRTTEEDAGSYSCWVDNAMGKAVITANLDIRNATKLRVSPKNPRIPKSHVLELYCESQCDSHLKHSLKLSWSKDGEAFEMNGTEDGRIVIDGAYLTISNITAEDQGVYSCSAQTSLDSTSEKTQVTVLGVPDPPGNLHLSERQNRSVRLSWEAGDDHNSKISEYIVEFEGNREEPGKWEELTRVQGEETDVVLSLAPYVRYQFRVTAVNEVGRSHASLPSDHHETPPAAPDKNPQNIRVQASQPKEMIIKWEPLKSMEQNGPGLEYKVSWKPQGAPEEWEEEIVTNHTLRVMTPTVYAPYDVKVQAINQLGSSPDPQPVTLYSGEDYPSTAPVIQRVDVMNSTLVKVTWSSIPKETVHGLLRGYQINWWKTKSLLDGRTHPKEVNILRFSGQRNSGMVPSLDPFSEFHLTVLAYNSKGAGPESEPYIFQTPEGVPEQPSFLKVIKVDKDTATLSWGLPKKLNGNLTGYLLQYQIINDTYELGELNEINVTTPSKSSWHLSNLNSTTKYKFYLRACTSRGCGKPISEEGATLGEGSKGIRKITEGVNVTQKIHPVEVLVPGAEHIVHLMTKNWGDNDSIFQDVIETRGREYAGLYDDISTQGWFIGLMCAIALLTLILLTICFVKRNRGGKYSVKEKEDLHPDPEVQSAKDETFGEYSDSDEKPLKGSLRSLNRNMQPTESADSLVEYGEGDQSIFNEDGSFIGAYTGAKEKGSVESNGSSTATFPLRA
Experiment: FACS: hybridoma culture supernatant on HEK293 cells transfected with mChl1 pIRES2-EGFP, detected with APC goat anti-rat IgG
Excerpt: Mouse CHL1 gene (mChl1) was cloned into pIRES2-EGFP vector by PCR using Phusion (Thermo Fisher Scientific Inc.: F530L). Y3Ag cells ([…]) were transfected with mChl1 pIRES2-EGFP by electroporation, and four 7-week-old female or male SD rats (CLEA Japan, Inc.) were immunized from their footpads and tail roots with a mixture of the cells with TiterMax Gold (Funakoshi Co., Ltd.: G-1X5). After 3 to 8 immunizations, inguinal lymph nodes or iliac lymph nodes were isolated, and their cells were fused with AG8 myeloma cells using PEG1500 (Roche: 10783641001). The obtained hybridomas were screened in HAT medium (DS Pharma Biomedical Co., Ltd.: 16-808-49) or HT medium (DS Pharma Biomedical Co., Ltd.: 16-809-49) under conditions supplemented with BM condimed H1 (Roche: 11088947001). The culture supernatants were collected and reacted with HEK293 cells transfected with mChl1 pIRES2-EGFP. Then, antibody titers in the supernatants were studied by FACS analysis using APC goat anti-Rat IgG (BioLegend, Inc.: 405407).

- binding result: binds
B1: 336 antibody, a monoclonal antibody to the CHL1 protein (antibody, V domains shown)
VH: EVQLQQSGPELQRPGASVKLSCKASGYPFTEYYIYWMKQRPKQGLELIGRIDPEDGSTDYVEKFKNKATLTADTSSNTAYMQLSSLTSEDTATYFCARALQGFAYWGQGTLVTVSS
VL: EIVLTQSPTTMAASPGEKVTLTCRASSSVSYMYWYLQKSGTSPKLWIYDTSRLASGIPDRFSGSGSGTSYSLTISSMETEDTATYYCQQGGSYPYTFGAGTKLELKR
notes: Rat monoclonal antibody from SD rats immunized with Y3Ag cells expressing mouse CHL1; Used as hybridoma culture supernatant in the FACS screen, and as protein G-purified antibody from ascitic fluid in later work
